Data: US20140105889A1 (published 2014)

B1: GpH7-B3 D270A / GpL16-k0 (antibody, human IgG1)
heavy: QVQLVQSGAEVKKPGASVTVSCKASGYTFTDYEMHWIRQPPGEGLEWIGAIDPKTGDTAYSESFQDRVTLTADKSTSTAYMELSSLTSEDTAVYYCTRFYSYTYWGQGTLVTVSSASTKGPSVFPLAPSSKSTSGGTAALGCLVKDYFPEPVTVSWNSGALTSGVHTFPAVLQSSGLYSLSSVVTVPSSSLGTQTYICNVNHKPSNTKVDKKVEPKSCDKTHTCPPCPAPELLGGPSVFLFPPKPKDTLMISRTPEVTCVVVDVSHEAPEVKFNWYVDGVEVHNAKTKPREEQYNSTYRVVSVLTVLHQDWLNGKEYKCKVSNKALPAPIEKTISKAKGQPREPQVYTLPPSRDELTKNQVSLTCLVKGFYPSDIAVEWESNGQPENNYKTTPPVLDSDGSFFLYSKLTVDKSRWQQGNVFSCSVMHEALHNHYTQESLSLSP
light: DIVMTQSPLSLPVTPGEPASISCQASESLVHSNRNTYLHWYLQKPGQSPQLLIYKVSNRFSGVPDRFSGSGSGTDFTLKISRVEAEDVGVYYCSQNTHVPPTFGQGTKVEIE
notes: B3 variant: anti-glypican-3 IgG1 (constant region B3 = G1d with K439E) with one substitution, EU numbering; also called B3 variant D270A; copies: 2 + 2
B2: GpH7-B3/GpL16-k0 with A327R introduced into GpH7-B3 (antibody, human IgG1)
heavy: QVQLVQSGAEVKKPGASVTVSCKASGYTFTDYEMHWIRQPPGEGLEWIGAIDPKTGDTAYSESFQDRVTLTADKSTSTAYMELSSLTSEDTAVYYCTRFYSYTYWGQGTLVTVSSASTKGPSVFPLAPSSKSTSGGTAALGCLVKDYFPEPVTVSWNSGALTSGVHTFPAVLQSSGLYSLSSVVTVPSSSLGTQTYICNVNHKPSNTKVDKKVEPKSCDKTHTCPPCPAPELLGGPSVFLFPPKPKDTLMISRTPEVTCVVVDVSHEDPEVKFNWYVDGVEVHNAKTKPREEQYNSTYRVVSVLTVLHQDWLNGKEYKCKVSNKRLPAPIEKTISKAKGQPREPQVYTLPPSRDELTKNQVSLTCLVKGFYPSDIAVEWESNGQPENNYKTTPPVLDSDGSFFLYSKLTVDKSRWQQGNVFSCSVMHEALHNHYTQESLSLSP
light: B1 light
notes: Anti-glypican-3 human IgG1; constant region B3 (G1d with K439E); Fc variant; also called B3 variant; copies: 2 + 2
B3: GpH7-B3/GpL16-k0 with A327Y introduced into GpH7-B3 (antibody, human IgG1)
heavy: not shown
light: B1 light
notes: as for B2
B4: GpH7-B3/GpL16-k0 with A327P introduced into GpH7-B3 (antibody, human IgG1)
heavy: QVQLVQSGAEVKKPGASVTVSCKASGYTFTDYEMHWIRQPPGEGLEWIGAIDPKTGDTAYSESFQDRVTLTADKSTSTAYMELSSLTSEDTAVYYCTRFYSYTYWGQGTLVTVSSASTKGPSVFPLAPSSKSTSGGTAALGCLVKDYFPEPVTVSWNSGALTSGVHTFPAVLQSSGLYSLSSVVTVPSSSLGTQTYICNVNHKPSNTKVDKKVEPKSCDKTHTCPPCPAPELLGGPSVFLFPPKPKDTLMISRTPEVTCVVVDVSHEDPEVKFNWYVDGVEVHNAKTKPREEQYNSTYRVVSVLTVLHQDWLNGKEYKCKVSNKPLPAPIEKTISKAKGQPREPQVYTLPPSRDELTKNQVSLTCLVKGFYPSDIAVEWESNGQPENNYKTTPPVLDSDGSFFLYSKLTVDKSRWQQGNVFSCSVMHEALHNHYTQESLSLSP
light: B1 light
notes: as for B2
B5: GpH7-B3/GpL16-k0 with A327V introduced into GpH7-B3 (antibody, human IgG1)
heavy: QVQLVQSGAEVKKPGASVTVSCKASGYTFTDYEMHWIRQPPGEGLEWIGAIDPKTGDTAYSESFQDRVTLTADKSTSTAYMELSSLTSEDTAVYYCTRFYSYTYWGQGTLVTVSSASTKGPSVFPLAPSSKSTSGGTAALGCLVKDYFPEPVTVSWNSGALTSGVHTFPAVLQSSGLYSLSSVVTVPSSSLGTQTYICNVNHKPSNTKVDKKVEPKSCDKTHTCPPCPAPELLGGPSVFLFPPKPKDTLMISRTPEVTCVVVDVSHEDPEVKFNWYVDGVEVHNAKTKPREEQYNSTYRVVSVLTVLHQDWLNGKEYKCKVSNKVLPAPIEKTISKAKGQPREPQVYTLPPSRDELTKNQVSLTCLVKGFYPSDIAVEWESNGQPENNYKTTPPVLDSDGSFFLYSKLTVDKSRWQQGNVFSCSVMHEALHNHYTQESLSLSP
light: B1 light
notes: as for B2
B6: GpH7-B3/GpL16-k0 with P329N introduced into GpH7-B3 (antibody, human IgG1)
heavy: not shown
light: B1 light
notes: as for B2
B7: GpH7-B3/GpL16-k0 with Y300K introduced into GpH7-B3 (antibody, human IgG1)
heavy: not shown
light: B1 light
notes: as for B2
B8: GpH7-B3/GpL16-k0 with A327F introduced into GpH7-B3 (antibody, human IgG1)
heavy: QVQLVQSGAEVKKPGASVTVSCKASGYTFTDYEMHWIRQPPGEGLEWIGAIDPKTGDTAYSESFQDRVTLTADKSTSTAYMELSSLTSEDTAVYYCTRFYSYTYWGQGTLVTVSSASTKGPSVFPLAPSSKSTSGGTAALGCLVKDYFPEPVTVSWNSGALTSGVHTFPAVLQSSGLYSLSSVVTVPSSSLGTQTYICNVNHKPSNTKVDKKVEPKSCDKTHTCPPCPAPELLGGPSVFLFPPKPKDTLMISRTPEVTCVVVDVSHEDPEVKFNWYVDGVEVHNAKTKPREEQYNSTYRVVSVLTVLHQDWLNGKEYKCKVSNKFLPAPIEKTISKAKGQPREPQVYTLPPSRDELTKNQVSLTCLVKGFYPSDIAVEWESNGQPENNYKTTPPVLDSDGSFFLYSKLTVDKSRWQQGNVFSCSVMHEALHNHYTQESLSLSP
light: B1 light
notes: as for B2
B9: GpH7-B3/GpL16-k0 with P329M introduced into GpH7-B3 (antibody, human IgG1)
heavy: not shown
light: B1 light
notes: as for B2
B10: GpH7-B3/GpL16-k0 with P329K introduced into GpH7-B3 (antibody, human IgG1)
heavy: not shown
light: B1 light
notes: as for B2
B11: GpH7-B3/GpL16-k0 with A327M introduced into GpH7-B3 (antibody, human IgG1)
heavy: not shown
light: B1 light
notes: as for B2
B12: GpH7-B3 D270L / GpL16-k0 (antibody, human IgG1)
heavy: not shown
light: B1 light
notes: B3 variant: anti-glypican-3 IgG1 (constant region B3 = G1d with K439E) with one substitution, EU numbering; also called B3 variant D270L; copies: 2 + 2
B13: GpH7-B3/GpL16-k0 with N325H introduced into GpH7-B3 (antibody, human IgG1)
heavy: not shown
light: B1 light
notes: as for B2
B14: GpH7-B3/GpL16-k0 with N325P introduced into GpH7-B3 (antibody, human IgG1)
heavy: not shown
light: B1 light
notes: as for B2
B15: GpH7-B3 D270I / GpL16-k0 (antibody, human IgG1)
heavy: not shown
light: B1 light
notes: B3 variant: anti-glypican-3 IgG1 (constant region B3 = G1d with K439E) with one substitution, EU numbering; also called B3 variant D270I; copies: 2 + 2
B16: GpH7-B3 D270S / GpL16-k0 (antibody, human IgG1)
heavy: not shown
light: B1 light
notes: B3 variant: anti-glypican-3 IgG1 (constant region B3 = G1d with K439E) with one substitution, EU numbering; also called B3 variant D270S; copies: 2 + 2
B17: GpH7-B3/GpL16-k0 with P329I introduced into GpH7-B3 (antibody, human IgG1)
heavy: not shown
light: B1 light
notes: as for B2
B18: GpH7-B3 D270F / GpL16-k0 (antibody, human IgG1)
heavy: not shown
light: B1 light
notes: B3 variant: anti-glypican-3 IgG1 (constant region B3 = G1d with K439E) with one substitution, EU numbering; also called B3 variant D270F; copies: 2 + 2
B19: GpH7-B3/GpL16-k0 with S324P introduced into GpH7-B3 (antibody, human IgG1)
heavy: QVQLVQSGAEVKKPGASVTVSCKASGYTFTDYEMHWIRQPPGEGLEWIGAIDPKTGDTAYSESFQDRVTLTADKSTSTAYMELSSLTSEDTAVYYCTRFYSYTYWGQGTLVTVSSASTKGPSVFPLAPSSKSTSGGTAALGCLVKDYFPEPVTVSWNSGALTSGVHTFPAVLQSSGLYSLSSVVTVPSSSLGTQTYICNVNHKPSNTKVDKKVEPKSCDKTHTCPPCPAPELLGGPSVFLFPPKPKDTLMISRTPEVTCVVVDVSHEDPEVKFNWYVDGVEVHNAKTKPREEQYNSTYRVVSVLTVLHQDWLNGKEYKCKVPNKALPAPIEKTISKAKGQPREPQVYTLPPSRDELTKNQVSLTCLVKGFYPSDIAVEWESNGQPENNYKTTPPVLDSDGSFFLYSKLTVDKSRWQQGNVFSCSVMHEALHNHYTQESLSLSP
light: B1 light
notes: as for B2
B20: GpH7-B3/GpL16-k0 with P329V introduced into GpH7-B3 (antibody, human IgG1)
heavy: not shown
light: B1 light
notes: as for B2
B21: GpH7-B3/GpL16-k0 with P329H introduced into GpH7-B3 (antibody, human IgG1)
heavy: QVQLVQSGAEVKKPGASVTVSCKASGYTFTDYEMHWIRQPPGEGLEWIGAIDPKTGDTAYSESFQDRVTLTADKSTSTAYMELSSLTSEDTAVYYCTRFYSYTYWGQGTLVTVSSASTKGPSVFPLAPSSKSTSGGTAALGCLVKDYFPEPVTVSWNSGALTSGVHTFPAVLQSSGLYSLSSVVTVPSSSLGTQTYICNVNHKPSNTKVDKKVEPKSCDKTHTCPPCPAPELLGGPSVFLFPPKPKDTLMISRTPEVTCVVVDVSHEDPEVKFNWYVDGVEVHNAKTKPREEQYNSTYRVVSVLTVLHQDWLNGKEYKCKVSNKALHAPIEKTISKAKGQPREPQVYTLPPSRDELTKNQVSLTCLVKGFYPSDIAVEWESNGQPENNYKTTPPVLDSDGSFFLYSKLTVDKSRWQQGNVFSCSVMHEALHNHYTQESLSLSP
light: B1 light
notes: as for B2
B22: GpH7-B3/GpL16-k0 with L328N introduced into GpH7-B3 (antibody, human IgG1)
heavy: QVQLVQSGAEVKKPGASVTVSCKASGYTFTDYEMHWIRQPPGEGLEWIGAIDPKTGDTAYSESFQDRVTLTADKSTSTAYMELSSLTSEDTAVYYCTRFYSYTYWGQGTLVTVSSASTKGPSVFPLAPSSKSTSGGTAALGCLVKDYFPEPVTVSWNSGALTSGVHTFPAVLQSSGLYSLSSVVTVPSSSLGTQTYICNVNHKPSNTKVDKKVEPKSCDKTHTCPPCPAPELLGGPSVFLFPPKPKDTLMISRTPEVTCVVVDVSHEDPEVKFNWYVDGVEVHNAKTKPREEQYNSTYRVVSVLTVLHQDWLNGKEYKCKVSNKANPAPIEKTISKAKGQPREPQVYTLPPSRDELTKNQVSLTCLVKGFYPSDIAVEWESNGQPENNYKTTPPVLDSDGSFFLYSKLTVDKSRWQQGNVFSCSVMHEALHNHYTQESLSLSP
light: B1 light
notes: as for B2
B23: GpH7-B3/GpL16-k0 with N325A introduced into GpH7-B3 (antibody, human IgG1)
heavy: not shown
light: B1 light
notes: as for B2
B24: GpH7-B3/GpL16-k0 with P329T introduced into GpH7-B3 (antibody, human IgG1)
heavy: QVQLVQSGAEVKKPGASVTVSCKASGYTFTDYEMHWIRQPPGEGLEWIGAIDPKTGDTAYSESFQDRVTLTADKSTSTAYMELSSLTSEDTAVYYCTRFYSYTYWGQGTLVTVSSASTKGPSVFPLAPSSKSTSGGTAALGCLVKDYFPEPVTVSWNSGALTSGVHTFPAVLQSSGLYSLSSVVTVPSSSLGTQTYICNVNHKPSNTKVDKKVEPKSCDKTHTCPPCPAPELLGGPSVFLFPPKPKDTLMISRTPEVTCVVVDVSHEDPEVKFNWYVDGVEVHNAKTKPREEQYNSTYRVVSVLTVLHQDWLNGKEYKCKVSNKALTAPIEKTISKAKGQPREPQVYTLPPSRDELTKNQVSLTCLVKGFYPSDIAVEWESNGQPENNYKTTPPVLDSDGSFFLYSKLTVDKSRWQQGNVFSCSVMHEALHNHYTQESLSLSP
light: B1 light
notes: as for B2
B25: GpH7-B3/GpL16-k0 with P329F introduced into GpH7-B3 (antibody, human IgG1)
heavy: not shown
light: B1 light
notes: as for B2
B26: GpH7-B3/GpL16-k0 with S324K introduced into GpH7-B3 (antibody, human IgG1)
heavy: not shown
light: B1 light
notes: as for B2
B27: GpH7-B3/GpL16-k0 with N325T introduced into GpH7-B3 (antibody, human IgG1)
heavy: not shown
light: B1 light
notes: as for B2
B28: GpH7-B3/GpL16-k0 with A327H introduced into GpH7-B3 (antibody, human IgG1)
heavy: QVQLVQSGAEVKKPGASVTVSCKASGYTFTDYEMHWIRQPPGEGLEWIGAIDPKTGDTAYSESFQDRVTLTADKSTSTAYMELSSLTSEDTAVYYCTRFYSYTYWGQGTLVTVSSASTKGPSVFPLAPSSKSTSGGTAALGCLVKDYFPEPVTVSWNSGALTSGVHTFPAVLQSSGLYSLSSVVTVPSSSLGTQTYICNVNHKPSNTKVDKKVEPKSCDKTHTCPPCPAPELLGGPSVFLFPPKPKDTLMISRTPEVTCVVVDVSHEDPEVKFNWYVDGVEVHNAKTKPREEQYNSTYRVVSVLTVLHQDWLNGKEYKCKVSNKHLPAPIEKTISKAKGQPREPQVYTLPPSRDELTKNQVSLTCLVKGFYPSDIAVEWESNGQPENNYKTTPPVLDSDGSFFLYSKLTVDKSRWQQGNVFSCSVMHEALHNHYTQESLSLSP
light: B1 light
notes: as for B2

How the values were obtained:
human FcγRIIIa(F) [1] = target: T1, human FcγRIIIa(F) (human, UniProt P08637 17-208, limits assumed); experiment: SPR (Biacore), antibody captured, FcγR as analyte
T1 construct: also called FcgRIIIaF; FcγRIIIa allotype F158
T1 sequence (P08637 other isoform, or with tags, fused parts or gaps limits assumed): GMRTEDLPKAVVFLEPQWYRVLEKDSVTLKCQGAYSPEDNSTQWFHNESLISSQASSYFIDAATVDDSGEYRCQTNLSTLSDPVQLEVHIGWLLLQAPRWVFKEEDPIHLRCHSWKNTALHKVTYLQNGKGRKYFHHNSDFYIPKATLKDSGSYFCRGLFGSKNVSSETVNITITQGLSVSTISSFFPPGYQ
Experimental: (§1) Interaction between each modified antibody and Fcγ receptor prepared in the manner described above was analyzed using the Biacore T100 (GE Healthcare), Biacore T200 (GE Healthcare), Biacore A100 or Biacore 4000. HBS-EP+ (GE Healthcare) was used for the running buffer, and measurements were carried out at 25° C. The chips used were chips in which antigen peptides, Protein A (Thermo Scientific), Protein A/G (Thermo Scientific) or Protein L (ACTIGEN or BioVision) were immobilized on the Series S Sensor Chip CM5 (GE Healthcare) or Series S Sensor Chip CM4 (GE Healthcare) by amine coupling, or chips in which preliminarily biotinylated antigen peptides were allowed to interact and then immobilized on the Series S Sensor Chip SA (certified) (GE Healthcare). The target antibodies were captured on these sensor chips, Fcγ receptor diluted with the running buffer was allowed to interact, followed by measurement of the amount of bound antibody. The amounts bound were compared between antibodies. However, since the amount of Fcγ receptor bound depends on the amount of captured antibody, the values used for comparison were first corrected by dividing the amount of Fcγ receptor bound by the captured amount of each antibody. Through reaction with 10 mM glycine-HCl at pH 1.5, the sensor chips were regenerated by washing off antibody captured on the sensor chips and used repeatedly.
(§2) Binding strength was evaluated according to the following method based on the results of analyzing the interaction with each FcγR. […] That value was then further multiplied by 100, and the resulting value was used as an indicator of relative binding activity to each FcγR.

human FcγRIIIa(F) [2] = target: T2, human FcγRIIIa(F) (human, UniProt P08637 17-208, limits assumed); experiment: SPR (Biacore), captured antibody, FcγR analyte; bound amount relative to GpH7-B3/GpL16-k0 x100;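 note: receptor response divided by the antibody amount captured on the chip before comparison with the reference antibody, measured at 25 °C in HBS-EP+ running buffer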
T2 construct: also called FcgRIIIaF; FcγRIIIa allotype F158
T2 sequence (P08637 other isoform, or with tags, fused parts or gaps limits assumed): as above
Experimental: as §1, §2

Row | Binder | relative binding activity (amount bound / amount bound by GpH7-B3/GpL16-k0 x100) (human FcγRIIIa(F) [1]) | relative binding activity (human FcγRIIIa(F) [2])
1 | B1 | 23 % of GpH7-B3/GpL16-k0 | –
2 | B2 | – | 1 % of GpH7-B3/GpL16-k0
3 | B3 | – | 13 % of GpH7-B3/GpL16-k0
4 | B4 | – | 20 % of GpH7-B3/GpL16-k0
5 | B5 | – | 18 % of GpH7-B3/GpL16-k0
6 | B6 | – | 3 % of GpH7-B3/GpL16-k0
7 | B7 | – | 35 % of GpH7-B3/GpL16-k0
8 | B8 | – | 16 % of GpH7-B3/GpL16-k0
9 | B9 | – | 0 % of GpH7-B3/GpL16-k0
10 | B10 | – | -1 % of GpH7-B3/GpL16-k0
11 | B11 | – | 24 % of GpH7-B3/GpL16-k0
12 | B12 | 33 % of GpH7-B3/GpL16-k0 | –
13 | B13 | – | 37 % of GpH7-B3/GpL16-k0
14 | B14 | – | 0 % of GpH7-B3/GpL16-k0
15 | B15 | 23 % of GpH7-B3/GpL16-k0 | –
16 | B16 | 17 % of GpH7-B3/GpL16-k0 | –
17 | B17 | – | 2 % of GpH7-B3/GpL16-k0
18 | B18 | 12 % of GpH7-B3/GpL16-k0 | –
19 | B19 | – | 35 % of GpH7-B3/GpL16-k0
20 | B20 | – | 7 % of GpH7-B3/GpL16-k0
21 | B21 | – | -1 % of GpH7-B3/GpL16-k0
22 | B22 | – | 22 % of GpH7-B3/GpL16-k0
23 | B23 | – | 6 % of GpH7-B3/GpL16-k0
24 | B24 | – | -1 % of GpH7-B3/GpL16-k0
25 | B25 | – | 0 % of GpH7-B3/GpL16-k0
26 | B26 | – | 74 % of GpH7-B3/GpL16-k0
27 | B27 | – | 10 % of GpH7-B3/GpL16-k0
28 | B28 | – | 14 % of GpH7-B3/GpL16-k0
